Experiments:
[1] = biological target: T1, maltose-binding protein-fused CD30 (Homo sapiens, UniProt P28908-1); test: SPR; Biacore T200; cAb or BpAb captured on anti-human Fc (CM5), CD30-MBP flowed at 0, 2 and 20 nM (0, 20 and 200 nM for T426), contact 90 s, dissociation 300 s; 'at a rough level'; conditions: both partners purified
T1 construct: signal peptide in the construct; human CD30 extracellular domains, residues 1-336; also called CD30-MBP; source: Expi293, purified (Ni-NTA, Superdex200); not shown: MBP, C-terminal, kept

CD30 fused to rabbit Fc = biological target: T2, CD30 fused to rabbit Fc (Homo sapiens, UniProt P28908-1); test: ELISA; mutual competition: indicator cAb (0.75 μg/mL) captured on goat anti-human IgG Fc; CD30-rFc (50 ng/mL) pre-incubated overnight at 4 °C with competitor cAb (2.8 μg/mL); bound CD30-rFc probed with anti-rabbit IgG; conditions: one partner purified
T2 construct: signal peptide in the construct; human CD30 whole extracellular domains, NP_001234.3 amino acids 1-383; also called CD30-rFc; source: HEK293T, transfected, harvested from the culture supernatant; not shown: hinge and Fc (rabbit IgG1), C-terminal, kept
T2 sequence (P28908 19-383): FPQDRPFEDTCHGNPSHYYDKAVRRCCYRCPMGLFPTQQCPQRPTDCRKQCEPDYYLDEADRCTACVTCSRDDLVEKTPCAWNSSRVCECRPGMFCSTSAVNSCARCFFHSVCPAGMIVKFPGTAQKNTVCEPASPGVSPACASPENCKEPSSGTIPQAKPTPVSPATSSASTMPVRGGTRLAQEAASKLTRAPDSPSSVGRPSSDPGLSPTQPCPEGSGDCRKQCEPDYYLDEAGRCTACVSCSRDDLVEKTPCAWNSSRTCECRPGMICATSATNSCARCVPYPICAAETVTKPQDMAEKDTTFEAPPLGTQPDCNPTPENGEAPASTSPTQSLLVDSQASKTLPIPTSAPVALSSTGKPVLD

T1 sequence (P28908 19-336): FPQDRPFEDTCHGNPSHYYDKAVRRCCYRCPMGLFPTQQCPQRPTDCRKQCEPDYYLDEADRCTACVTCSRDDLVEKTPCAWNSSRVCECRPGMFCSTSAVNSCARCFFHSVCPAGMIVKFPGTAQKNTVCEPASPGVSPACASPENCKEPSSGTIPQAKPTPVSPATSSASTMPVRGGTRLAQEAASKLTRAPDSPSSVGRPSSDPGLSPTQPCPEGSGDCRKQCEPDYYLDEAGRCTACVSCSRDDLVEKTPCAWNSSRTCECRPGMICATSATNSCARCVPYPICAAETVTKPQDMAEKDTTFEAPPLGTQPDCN

Row | Binder | binding result [1] | binding result (CD30 fused to rabbit Fc)
1 | T107 cAb (antibody, V domains shown) VH: QVQLQQSGPELVRPGVSVKISCKGSGYSFPDYPLHWVKQSHAKSLEWIGIILTYSGNTNYNQNFKGKATMTVDTSSNTAYLELARLTSEDSAIYYCATFYYGYDGAFDYWGQGTTLTVSS VL: DIVMTQSPSSLTVTAGEKVTMSCKSSQSLLNSGNQKNYLTWYQQKPGQPPKLLIHWASTRESGVPDRFTGSGSGTDFILTITSVQAEDLAVYYCQNDYTYPLTFGGGTKLELK | binds | binds
2 | T105 cAb (antibody, V domains shown) VH: QVTLKESGPGILQPSQTLSLTCSFSGFSLSTSGMGVSWIRQPSGKDLEWLAHIYWDDDKRYNPSLKSRLTISKDTSSNQVFLKITSVDTADTATYYCARRADGLYFYLDVWGAGTTVTVSS VL: DIVMTQSQKFMSTSVGDRVSVTCKASQNVNTNVAWYQQKPGQSPEALIYSASYRYSGVPDRFTGSGSGTDFTLTISNVQSEDLAEYFCQQYNSYPLTFGSGTKLEIK | binds | binds
3 | T6 cAb (antibody, V domains shown) VH: QVQLKESGPGLVTPSQSLSITCTVSGFSLSKYSIHWVRQPPGRGLEWLGMIWGVENTDYNSALKSRLSISKDNSKSQVFLKMNSLQSDDTAMYYCARKDLGLYGMNYWGQGISVTVSA VL: DIVMTQSQKFMSTSVGDRVSVTCKASQNVGTNVAWYQQKPGQSPKALFYSASYRYSGVPDRFIGSGSGTVFTLTISNVQSEDLAEYFCQQYNTYPLTFGSGTKLEIE | binds | 
4 | T405 cAb (antibody, V domains shown) VH: QVQLQQIGAELVRPGASVKLSCKASGYTFNNYWINWVKQRPGQGLEWIGNIYPSDSRSNYNQKFKDKATLTVDKPSSTAYMQLSSPTSEDSAVYYCTLGSYWGQGTLVTVSA VL: not shown | binds | 
5 | T426 cAb (antibody, V domains shown) VH: EVQLQQSGAELVKPGASVKLSCTASGFNVKDTYVHWVKQRPEQGLEWIGRIDPANSDTKYDSKFQGKATTSADTSSNTAYLQLNSLTSEDTAVYYCASGTDDYYWYFDVWGAGTTVTVSS VL: DIVLTQSPASLAVSLGQRATISCRASKSVSTPAHTYMHWYQQKPGQPPKLLIYLASNLESGVPARFSGSGSGTDFTLNIHPVEVEDAATYYCQHSRVLPYTFGGGTKLEIK |  | binds
6 | AC10 cAb (antibody, V domains shown) VH: QIQLQQSGPEVVKPGASVKISCKASGYTFTDYYITWVKQKPGQGLEWIGWIYPGSGNTKYNEKFKGKATLTVDTSSSTAFMQLSSLTSEDTAVYFCANYGNYWFAYWGQGTQVTVSA VL: DIVLTQSPASLAVSLGQRATISCKASQSVDFDGDSYMNWYQQKPGQPPKVLIYAASNLESGIPARFSGSGSGTDFTLNIHPVEEEDAATYYCQQSNEDPWTFGGGTKLEIK | binds | binds
7 | T427 cAb (antibody, V domains shown) VH: QVQLQQPGTELVRPGASVKLSCKASGFSFTSYWMNWVKQRPGQGLEWIGMIHPSDSETRLNQKFKDRATLTVDKSSSTAYMQLSSPTSEDSAVYYCASEMDYYFAMDYWGQGTSVTVSS VL: DIVLTQSPTSLAVSLGQRATISCRASESVDSYGNSFMHWFQQKPGQPPKLLIYRASNLESGIPARFSGSGSWTDFTLTINPVEADDVATYYCQQSNEDPRTFGGGTKLEIK | binds | binds
8 | T25 cAb (antibody, V domains shown) VH: QVTLKESGPGILQPSQTLSLTCSFSGFSLNTSGVGVGWIRQPSGKGLEWLAHIWWDDDERYNPVLKSRLTISKDTSSNQVFLKIANVDTADSATYYCVRSMVAWFPYWGRGTLVTVSA VL: DIVMSQSPSSLAVSVGEKFTVNCKSSQSLLYSSNQKNFLAWYQQKPGQSPKLLIYWASTRESGVPDRFIGSGSGTDFTLTISSVKAEDLAVYYCQQHYRYPWTFGGGTKLEIK | binds | 
9 | T104 cAb (antibody, V domains shown) VH: QIQLVQSGPELKKPGETVKISCKASGYTFTDYSMHWVKQAPGKGLKWMGWINTETGEPTYADDFKGRFAFSLETSASTAYLQINNLKNEDTATYFCTEGYVFDFWGQGTTLTVSS VL: DILLTQSPAILSVSPGERVSFSCRASRSIGTSIHWYQQRTNGSPRLLINYASESISGIPSRFSGSGSGTDFTLSINSVESEDIADYYCQQSNSWPLTFGAGTKLELK | binds | 
